The record followed here is patent US20260234234A1 (QILU PUGET SOUND BIOTHERAPEUTICS, published 2026).

B1: Avitag_c-MYC_His6-tagged hIL-33 (Ser112-Thr270), QB10975 (ligand)
chain: GLNDIFEAQKIEWHEGGGGSEQKLISEEDLGSSHHHHHHSSGSITGISPITEYLASLSTYNDQSITFALEDESYEIYVEDLKKDEKKDKVLLSYYESQHPSNESGDGVDGKMLMVTLSPTKDFWLHANNKEHSVELHKCEKPLPDQAFFVLHNMHSNCVSFECKTDPGVFIGVKDNHLALIKVDSSENLCTENILFKLSET
notes: Entry includes N-terminal Avitag, c-MYC and His6 tags; reduced with DTT to the active form; also called active hIL-33; reduced hIL-33

Assay [1] addresses T1, hST2-Fc protein from R&D Systems (cat no. 523-ST-100) (human, UniProt Q01638 19-328, limits assumed).
T1 construct: Bought reagent; also called human ST2
T1 sequence (looked up): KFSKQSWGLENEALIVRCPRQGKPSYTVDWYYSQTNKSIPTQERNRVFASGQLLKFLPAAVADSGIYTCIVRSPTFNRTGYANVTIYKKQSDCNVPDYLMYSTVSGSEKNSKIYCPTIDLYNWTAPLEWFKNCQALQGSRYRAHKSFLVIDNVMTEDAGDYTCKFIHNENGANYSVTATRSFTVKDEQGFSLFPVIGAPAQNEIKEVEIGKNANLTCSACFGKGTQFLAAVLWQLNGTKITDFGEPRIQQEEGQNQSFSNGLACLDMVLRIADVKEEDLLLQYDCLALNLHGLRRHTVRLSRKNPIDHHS
Nature of the assay: SPR, hST2-Fc immobilised on CM5, RU against hIL-33 concentration, 1 min association; 1 min association.

For assay [2], the target named is T1, hST2-Fc protein from R&D Systems (cat …). Nature of the assay: SPR, hST2-Fc immobilised on CM5, RU against hIL-33 concentration, 2 min association; 2 min association. For orientation: In SPR one partner is held on a chip, and binding of the other changes the refractive index at the surface.
In assay [3] the target is B1. As to the kind of experiment: SPR.
For assay [4], the target named is T2, His6-tagged cyIL-33 (Ser112-Ile270), QB10976 (cynomolgus monkey).
T2 construct: Entry includes N-terminal Avitag, FLAG and His6 tags; isoform X1, NCBI XP_005581824; also called cyIL-33 antigen
T2 chain: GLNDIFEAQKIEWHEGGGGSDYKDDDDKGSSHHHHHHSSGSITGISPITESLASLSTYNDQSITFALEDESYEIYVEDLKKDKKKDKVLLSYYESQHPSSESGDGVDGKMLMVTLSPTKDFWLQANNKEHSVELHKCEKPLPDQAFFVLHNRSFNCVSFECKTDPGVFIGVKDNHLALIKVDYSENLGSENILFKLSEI
Nature of the assay: SPR, cyIL-33 analyte.

Assay [5] deals with T2, His6-tagged cyIL-33 (Ser112-Ile270), …. Nature of the assay: SPR, captured antibody, cyIL-33 analyte, 25 C, 1:1 fit.
The target of assay [6] is B1. Nature of the assay: SPR, captured antibody, hIL-33 analyte, 37 C, 1:1 fit.
The target of assay [7] is T2, His6-tagged cyIL-33 (Ser112-Ile270), …. Nature of the assay: SPR, Biacore T200.
Assay [8] concerns the target B1. As to the kind of experiment: SPR competition, antibody titrated against 10 nM hIL-33, over immobilised hST2-Fc.
Assay [9] has as its target B1. Nature of the assay: SPR (Biacore) blocking: mAb premixed with 10 nM hIL-33, flowed over ST2-Fc on a CM5 chip; blocked partner ST2-Fc.

Broadly, the EC50 is the concentration at which the effect is half-maximal. As for B1, the EC50 in assay [1] came out at 10.8 nM; in [2], 5.17 nM.

B2: anti-hIL-33 IgG1 antibody QB11421 (antibody)
heavy: EVQLLESGGGLVQPGGSLRLSCAASGFTFYSSAMSWFRQTQGKGLEWVSTISSGGSNTYYPDSVKGRFTISRDNSKNTLYLQMNSLGAEDTAVYYCASAYYGRRYDAMDYWGQGTLVTVSSASTKGPSVFPLAPSSKSTSGGTAALGCLVKDYFPEPVTVSWNSGALTSGVHTFPAVLQSSGLYSLSSVVTVPSSSLGTQTYICNVNHKPSNTKVDKKVEPKSCDKTHTCPPCPAPEAAGGPSVFLFPPKPKDTLMISRTPEVTCVVVDVSHEDPEVKFNWYVDGVEVHNAKTKPREEQYNSTYRVVSVLTVLHQDWLNGKEYKCKVSNKALAAPIEKTISKAKGQPREPQVYTLPPSREEMTKNQVSLTCLVKGFYPSDIAVEWESNGQPENNYKTTPPVLDSDGSFFLYSKLTVDKSRWQQGNVFSCSVMHEALHNHYTQKSLSLSPGK
light: DVVMTQSPPSLPVTLGQSASISCKSSESLLHSNANTYLYWFQQRPGQSPQLLIYRGSNLASGVPDRFSGSGSGTDFTLKISRVEAEDVGVYYCMQHLRNPYTFGQGTKVEIKRTVAAPSVFIFPPSDEQLKSGTASVVCLLNNFYPREAKVQWKVDNALQSGNSQESVTEQDSKDSTYSLSSTLTLSKADYEKHKVYACEVTHQGLSSPVTKSFNRGEC
notes: IgG1 L234A, L235A, P329A; also called top clone as IgG1
The term Kd denotes the equilibrium constant for the complex coming apart. By koff is commonly meant the rate constant with which the complex falls apart. A higher koff goes with a short-lived complex. One may read the kon as the second-order rate constant of association. Low readings indicate slower complex formation, high ones faster complex formation. Turning to B2, in assay [3], the “fold increase of affinity against parental antibody QB11119” value is ~2 fold. In addition, in assay [4], the “fold improvement of affinity against parental antibody QB11119” value was ~3 fold. In assay [5], this molecule yielded a Kd of 4.89 nM, a koff of 0.00188 s⁻¹ and a kon of 384000 M⁻¹ s⁻¹. In assay [6], this molecule returned a Kd of 0.207 nM, a koff of 0.000669 s⁻¹ and a kon of 3.23e+06 M⁻¹ s⁻¹.

B3: chimeric anti-hIL-33 antibody QB10998 (antibody, human IgG1, kappa, V domains shown)
VH: EVMLVESGGGLVKPGGSLKLSCAASGFTFYSSAMSWVRQTPEKRLEWVATISSGGSNTYYPDSVKGRFTISRDNAKNTLYLQMSSLGSEDTAMYYCASAYYGRRYDAMDYWGQGTSVTVSS
VL: DIVMTQAAPSIPVTPGESVSISCKSSKSLLHSNGNTYLYWFLQRPGQSPQLLIYRMSNLASGVPDRFSGSGSGTAFTLRISRVEAEDVGVYYCMQHLENPYTFGGGTKLELNR
notes: Text says murine VH on human IgG4 constant regions; the printed HC entry looks like IgG1; also called chimeric antibody
As a reminder, the IC50 is the concentration needed to halve the response being measured. A lower IC50 goes with greater potency. As for B3, in assay [7], the binding result is reported as “binds”. Moreover, the figures for the IC50 in assay [8] and in assay [9] were 1.5 nM and 1.01 nM, respectively.
